Source: patent US20260265385A1, “CD122 BINDING AGENTS AND METHOD OF USING SAME” (AnaptysBio, Inc., priority 2022, published 2026)
Positions count from the first letter of the chain named.

T1: IL-2RB (Homo sapiens, UniProt P14784)
T1 sequence (P14784 27-551): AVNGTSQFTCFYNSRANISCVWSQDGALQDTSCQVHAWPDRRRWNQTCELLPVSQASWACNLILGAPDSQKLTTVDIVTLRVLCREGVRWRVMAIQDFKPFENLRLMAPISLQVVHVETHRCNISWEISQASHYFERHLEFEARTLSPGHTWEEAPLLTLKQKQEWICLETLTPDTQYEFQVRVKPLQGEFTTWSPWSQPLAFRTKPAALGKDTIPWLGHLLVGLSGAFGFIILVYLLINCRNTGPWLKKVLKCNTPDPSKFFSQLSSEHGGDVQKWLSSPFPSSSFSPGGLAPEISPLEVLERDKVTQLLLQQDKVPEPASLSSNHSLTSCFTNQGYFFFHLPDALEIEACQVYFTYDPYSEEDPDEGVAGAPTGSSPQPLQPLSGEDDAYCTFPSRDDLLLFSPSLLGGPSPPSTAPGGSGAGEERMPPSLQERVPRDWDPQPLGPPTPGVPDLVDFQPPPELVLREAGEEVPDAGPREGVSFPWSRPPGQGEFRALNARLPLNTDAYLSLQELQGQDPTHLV

T2: Human IL-2Rβ (Homo sapiens, UniProt P14784)
T2 construct: corresponding to residues Ala1-Thr215 of the extracellular domains excluding the signal peptide
T2 sequence (P14784 26-240 limits assumed): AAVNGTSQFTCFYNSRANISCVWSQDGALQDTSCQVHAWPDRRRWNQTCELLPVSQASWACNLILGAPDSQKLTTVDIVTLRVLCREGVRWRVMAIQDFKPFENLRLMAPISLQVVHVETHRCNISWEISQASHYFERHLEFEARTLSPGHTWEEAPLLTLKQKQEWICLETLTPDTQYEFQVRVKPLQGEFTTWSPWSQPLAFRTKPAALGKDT

T3: Cynomolgus IL-2Rβ (Macaca fascicularis, UniProt Q38J85)
T3 construct: corresponding to residues Ala1-Thr215 of the extracellular domains excluding the signal peptide
T3 sequence (Q38J85 26-240 limits assumed): T2 sequence (P14784 26-240 limits assumed) with Q8R, A67T, T75A, L84M, V93M, E128K, L159M

B1: M10-1275: anti-CD122 IgG4 antibody of the M10-1275 class tested in Example 4; APE number not stated (antibody, V domains shown)
VH: DVQLQQSGAELARPGASVKLSCTVSGFNFKDSLMHWVTQGPERGLRWIGWIDSENGETEYAPGFQDKATITADTSSSTVYLHLSSLTSEDTAIYYCARGGPWFLSYWGPGTTLTVSS
VL: DIVLTQTPATLSVTPGDSVSLSCRASQIISNNLHWYQQKSHESPRLLIIYGLQSISGIPYRFSGRRSGTDFTLNINSVEIEDFGMYFCQQSNNWPWTFGGGTKLDIRR
B2: APE12705: M10-1275 series anti-CD122 antibody (chimeric in Table 3), VH SEQ ID NO: 1, VL SEQ ID NO: 25 (antibody, V domains shown)
VH: B1 VH
VL: B1 VL
B3: M6-1625: anti-CD122 IgG4 antibody of the M6-p1625 class tested in Example 4; APE number not stated (antibody, V domains shown)
VH: QVQLQQSGAELMKPGASVKISCKSTGYTFSRYWIEWVKQRPGHGLEWIGEILPGSGSINHNEKFQGKATFTADTSSNTVYMQLSSLTSEDSAVYFCTRHYGSFDYWGQGTTLTVSS
VL: EIVMTQSPKFMSTSVGDRVSVTCKASQNVGTDVAWYQQKPGQSPKALIYSASYRYNGVPDRFTGSGSGTDFTLTISNVQSEDLAEYFCHQYSSYPFTFGSGTKLEIKR
B4: APE12383: M6-p1625 series anti-CD122 antibody (chimeric in Table 3), VH SEQ ID NO: 37, VL SEQ ID NO: 70 (antibody, V domains shown)
VH: B3 VH
VL: B3 VL
B5: APE15170: M10-1275 series anti-CD122 antibody, VH SEQ ID NO: 23, VL SEQ ID NO: 35 (antibody, V domains shown)
VH: EVQLVQSGAEVKKPGATVKISCKVSGFNFKESLIHWVQQAPGKGLEWMGWIDNEAGETEYAPGFQDRVTITADTSTDTAYMELSSLRSEDTAVYYCARGGPWFLSYWGQGTTVTVSS
VL: EIVMTQSPATLSVSPGERATLSCRASQIISNNLHWYQQKPGQAPRLLIIYGLQSISGIPARFSGSRSGTEFTLTISSLQSEDFAVYFCQQSNNFPWTFGQGTKLEIKR
modifications: IgG4P format
B6: APE15446: M10-1275 series anti-CD122 antibody, VH SEQ ID NO: 24, VL SEQ ID NO: 35 (antibody, V domains shown)
VH: B5 VH
VL: B5 VL
B7: APE15428: M6-p1625 series anti-CD122 antibody, VH SEQ ID NO: 69, VL SEQ ID NO: 77 (antibody, V domains shown)
VH: QVQLVQSGAEVKKPGASVKVSCKASGYTFTRFWIQWVRQAPGQGLEWMGEILPGSGSINHNEKFQGRVTMTRDTSTSTVYMELSSLRSEDTAVYYCTRHYGSFDYWGQGTTVTVSS
VL: DIQMTQSPSSLSASVGDRVTITCKASQNVGTDVAWYQQKPGKAPKSLIYSASYRYSGVPSRFSGSGSGTDFTLTISSLQPEDFATYFCHQYESYPFTFGQGTKLEIKR
modifications: IgG1 LALA Fc format
B8: APE15295: M6-p1625 series anti-CD122 antibody, VH SEQ ID NO: 68, VL SEQ ID NO: 77 (antibody, V domains shown)
VH: B7 VH
VL: B7 VL
modifications: IgG4P format

Key:
[1] = tested on: PHA-stimulated primary human T cell blasts; assay: IL-2- or IL-15-induced proliferation of PHA-stimulated T cell blasts (CTG); type: cell-based; details: IL-2 (15 pM) or IL-15 (150 pM) induced proliferation, IgG4 antibodies, compared with upadacitinib, FIG. 4
Description: Primary human PBMCs were isolated from whole blood donors, and stimulated in cuture for 3 days with 5 μg/mL PHA in a T75 flask. Cells were washed, counted, and plated at 100,000 cells/well in a 96-well plate. Antibodies were titrated at the concentrations indicated in FIG. 4, starting at 100 nM with 1:3 dilutions, and added to the cells. Recombinant IL-2 (15 pM) or IL-15 (150 pM) were added to the cells. Cells were cultured for an additional three days. SteadyGlo substrate was added for 10 minutes and the plates were read on the GloMax machine. Data were analyzed using Graphpad Prism software.

IL-2RB = target: T1, IL-2RB; assay: Ability to block IL-2 (SPR assay); type: binding; details: chimeric antibodies
Human IL-2Rβ = target: T2, Human IL-2Rβ; assay: SPR binding affinity to recombinant human IL-2Rβ (Biacore); details: 1:1 binding model
Description: (§1) Surface plasmon resonance (SPR) was used to determine the binding affinities. The M6-1625 and M10-1275 antibodies were captured onto a Cytiva Protein A Chip for 60 seconds at 0.5 μg/mL for 60 seconds. The antibodies were exposed to recombinant human LL-2Rβ or cynomolgus LL-2Rβ (corresponding to residues Ala1-Thr215 of the extracellular domains excluding the signal peptide) at typical concentrations ranging from 0.4 nM to 11 nM with typical 300 second associations and 1200 second dissociations using a BiacoreS200 instrument. Sensorgrams were fit globally using a 1:1 binding model in the Biacore T200 Evaluation Software to calculate on- and off-rates and KD values.

Cynomolgus IL-2Rβ = target: T3, Cynomolgus IL-2Rβ; assay: SPR binding affinity to recombinant cynomolgus IL-2Rβ (Biacore); details: 1:1 binding model
Description: as §1

[2] = tested on: xenogeneic NSG(huIL-15Tg)/Hu-PBMC Graft vs. Host Disease (GvHD) model; assay: Xenogeneic NSG(huIL-15Tg)/Hu-PBMC GvHD model, Example 14; type: in vivo, mice; details: 10 mg/kg, 3 mg/kg, or 1 mg/kg intraperitoneally twice weekly for 4 weeks; FIG. 14
Description: A xenogeneic NSG(huIL-15Tg)/Hu-PBMC GvHD model testing the efficacy of the anti-CD122 antibody disclosed herein was performed at The Jackson laboratory JAX® In Vivo Pharmacology Services (Sacramento, CA). NOD-scidIL2rγ^null (NSG) human IL-15 transgenic mice were irradiated with 1 Gy followed by intravenous injection of human PBMCs in each mouse. APE15428 (IgG1-LALA) was dosed intraperitoneally at 10 mg/kg, 3 mg/kg, or 1 mg/kg twice weekly for 4 weeks starting the day following PBMC injection. Disease was monitored three times weekly by body weight loss, death, and GvHD scores measuring: weight loss, activity, fur texture, paleness, and posture.

Molecule	Kd (Human IL-2Rβ)	Kd (Cynomolgus IL-2Rβ)	also measured
B1			blocking IL-2 and IL-15 [1]: better than upadacitinib
B2			Blocking (IL-2 down) (IL-2RB): Partial
B3			blocking IL-2 and IL-15 [1]: better than upadacitinib
B4			Blocking (IL-2 down) (IL-2RB): Blocker
B5	0.0128 nM	0.00487 nM	
B6	0.0107 nM	0.00415 nM	
B7	0.0567 nM	0.0765 nM	median time to survival vs. isotype control [2]: statistically significant efficacy
B8	0.0557 nM	0.0707 nM	
